From publication PMC12102759 come the findings set out here.

First the molecules themselves.
B1: NCOA2 peptide 1075-1090 (Nuclear receptor coactivator 2), 16-mer library wild type / NSP3 UBl1 (ORF1ab Nsp3a Ub1, residues 819-925) (parent)
chain 1: DEGALLDQLYLALRNF
chain 2: APTKVTFGDDTVIEVQGYKSVNITFELDERIDKVLNEKCSAYTVELGTEVNEFACVVADAVIKTLQPVSELLTPLGIDLDEWSMATYYLFDESGEFKLASHMYCSFY
B2: NOTCH4 peptide 1604-1619 (Neurogenic locus notch homolog protein 4), 16-mer library wild type / NSP9 (ORF1ab Nsp9, residues 4141-4253) (parent)
chain 1: TFQGAWLGAPEPWEPL
chain 2: NNELSPVALRQMSCAAGTTQTACTDDNALAYYNTTKGGRFVLALLSDLQDLKWARFPKSDGTGTIYTELEPPCRFVTDTPKGPKVKYLYFIKGLNNLNRGMVLGSLAATVRLQ

Variants of B1 are the subject of one assay. To be noted: with NSP3 UBl1 (ORF1ab Nsp3a Ub1, residues 819-925); bait immobilised on MaxiSorp plates (10 µg), library pre-cleared on GST, 2 h binding at 4 °C, five washes; one round per day, days 1-4; value from days 2 and 3; keep out of graded; scale: average fractional NGS count over selection days 2 and 3.
In the case of chain 1 DEGALLDQLYLALDNF [chain 1 R14D], the screen value was 0.000475.

For the variant chain 1 DEGALLDQLYQALRNF [chain 1 L11Q], the screen value was determined as 0. The same measure, in the same setting: the result for chain 1 DEGALLDQLYFALRNF [chain 1 L11F] reads 0. chain 1 DEGALLDQLYMALRNF [chain 1 L11M]: the screen value was 0. On the same count and under the same terms, the result for chain 1 DEGALLDQLYSALRNF [chain 1 L11S] reads 0.000175. For the variant chain 1 DNGALLDQLYLALRNF [chain 1 E2N], the screen value was determined as 0.

With chain 1 DENALLDQLYLALRNF [chain 1 G3N], the screen value came to 7.33e-06. For chain 1 DERALLDQLYLALRNF [chain 1 G3R], the screen value came to 2.99e-05. For chain 1 DEGALDDQLYLALRNF [chain 1 L6D], the screen value was 0. Still for that read-out and setting: the result for chain 1 DEGALGDQLYLALRNF [chain 1 L6G] reads 0. On the same count and under the same terms, the result for chain 1 DEGALEDQLYLALRNF [chain 1 L6E] reads 0. Same read-out and setting: for chain 1 DEGALLDGLYLALRNF [chain 1 Q8G] the value was 8.24e-06; for chain 1 DEGALLDPLYLALRNF [chain 1 Q8P], 1.57e-05.

In the next assay the parent is B2. To be noted: with NSP9 (ORF1ab Nsp9, residues 4141-4253); bait immobilised on MaxiSorp plates (10 µg), library pre-cleared on GST, 2 h binding at 4 °C, five washes; one round per day, days 1-4; value from days 2 and 3; keep out of graded; scale: average fractional NGS count over selection days 2 and 3.
With chain 1 TFQGAWLGAQEPWEPL [chain 1 P10Q], the screen value turned out to be 0. chain 1 TFQGAWLGAIEPWEPL [chain 1 P10I]: the screen value worked out at 0.

Take chain 1 TFQGAWLGADEPWEPL [chain 1 P10D]: the screen value worked out at 0. The same measure, in the same setting: for chain 1 TFQGAWLGAWEPWEPL [chain 1 P10W] the value was 0.00035. As for chain 1 TFQGAWLGALEPWEPL [chain 1 P10L], the screen value worked out at 0. On the same count and under the same terms, for chain 1 TFQGAWLGAAEPWEPL [chain 1 P10A] the value was 0; for chain 1 TFQGAWLGAEEPWEPL [chain 1 P10E], 4.5e-05. The same measure, in the same setting: the result for chain 1 TFQGAWLGAGEPWEPL [chain 1 P10G] reads 0.

On to chain 1 TFQGAWLGAPEPWEYL [chain 1 P15Y], for which the screen value turned out to be 0. For the variant chain 1 TFQGAWLGAPEPWESL [chain 1 P15S], the screen value stood at 0. On the same count and under the same terms, the result for chain 1 TFEGAWLGAPEPWEPL [chain 1 Q3E] reads 2.09e-05. On to chain 1 TFVGAWLGAPEPWEPL [chain 1 Q3V], for which the screen value was 0. chain 1 TFLGAWLGAPEPWEPL [chain 1 Q3L]: the screen value came to 0.

With chain 1 TFQGAWLGAPEPWFPL [chain 1 E14F], the screen value amounted to 3.92e-05. Same read-out and setting: the result for chain 1 TFQGAWLGAPEPWLPL [chain 1 E14L] reads 7.93e-05; that for chain 1 TFQGAWLGAPEPWGPL [chain 1 E14G], 0. Same read-out and setting: for chain 1 TFQGAWLGAPEPWVPL [chain 1 E14V] the value was 0.000155.

chain 1 TFQGAWLGAPEPWQPL [chain 1 E14Q]: the screen value worked out at 0.

On to chain 1 TFQGAWLGAPEPWHPL [chain 1 E14H], for which the screen value is 0. chain 1 TFQGLWLGAPEPWEPL [chain 1 A5L]: the screen value was found to be 5.68e-05.

Regarding chain 1 TFQGTWLGAPEPWEPL [chain 1 A5T], the screen value is 0. On to chain 1 TFQGSWLGAPEPWEPL [chain 1 A5S], for which the screen value is 0.

With chain 1 TFQGKWLGAPEPWEPL [chain 1 A5K], the screen value was determined as 0.

chain 1 TFQGVWLGAPEPWEPL [chain 1 A5V]: the screen value came out at 0.000292. Same read-out and setting: for chain 1 TFQGFWLGAPEPWEPL [chain 1 A5F] the value was 4.11e-05; for chain 1 TFQGEWLGAPEPWEPL [chain 1 A5E], 0; for chain 1 TFQGDWLGAPEPWEPL [chain 1 A5D], 0. As to chain 1 TFQGGWLGAPEPWEPL [chain 1 A5G], the screen value stood at 0.

In the case of chain 1 TFQGAWLGPPEPWEPL [chain 1 A9P], the screen value stood at 0. Same read-out and setting: the result for chain 1 TFQGAWLGMPEPWEPL [chain 1 A9M] reads 0; that for chain 1 TFQGAWLGWPEPWEPL [chain 1 A9W], 4.99e-05; that for chain 1 TFQVAWLGAPEPWEPL [chain 1 G4V], 0. Same read-out and setting: for chain 1 TFQDAWLGAPEPWEPL [chain 1 G4D] the value was 0; for chain 1 TFQYAWLGAPEPWEPL [chain 1 G4Y], 0; for chain 1 TFQPAWLGAPEPWEPL [chain 1 G4P], 0.

Turning to chain 1 TFQLAWLGAPEPWEPL [chain 1 G4L], the screen value was found to be 0. On the same count and under the same terms, the result for chain 1 TFQRAWLGAPEPWEPL [chain 1 G4R] reads 0; that for chain 1 TFQGAWLGAPEPQEPL [chain 1 W13Q], 0.

As to chain 1 TFQGAWLGAPEPIEPL [chain 1 W13I], the screen value was found to be 3.37e-05. As for chain 1 TFQGAWLGAPEPFEPL [chain 1 W13F], the screen value stood at 0. The same measure, in the same setting: the result for chain 1 TFQGAWLGAPEPMEPL [chain 1 W13M] reads 0. On the same count and under the same terms, for chain 1 TFQGAWLGAPEPSEPL [chain 1 W13S] the value was 2.43e-05; for chain 1 TFQGAWLGAPEPTEPL [chain 1 W13T], 4.47e-05.

Regarding chain 1 TFQGAWLGAPEWWEPL [chain 1 P12W], the screen value stood at 0. As to chain 1 TFQGAWLGAPERWEPL [chain 1 P12R], the screen value is 8.09e-05. As to chain 1 TFQGAWLGAPETWEPL [chain 1 P12T], the screen value was found to be 0. Take chain 1 TFQGAWLGAPEYWEPL [chain 1 P12Y]: the screen value amounted to 2.09e-05.

For chain 1 TFQGAWLGAPEQWEPL [chain 1 P12Q], the screen value worked out at 3.5e-05. Take chain 1 TFQGAWLGAPEKWEPL [chain 1 P12K]: the screen value stood at 8.35e-05. On the same count and under the same terms, the result for chain 1 TFQGAWLGAPEAWEPL [chain 1 P12A] reads 3.02e-05; that for chain 1 TFQGAWLGAPEHWEPL [chain 1 P12H], 9.54e-05; that for chain 1 TFQGAWLGAPEVWEPL [chain 1 P12V], 0.000373.

In the case of chain 1 TFQGAWLGAPEFWEPL [chain 1 P12F], the screen value is 1.76e-05. Still for that read-out and setting: the result for chain 1 TFQGAWLGAPEPWEPV [chain 1 L16V] reads 0; that for chain 1 TFQGAWLGAPEPWEPG [chain 1 L16G], 0; that for chain 1 TFQGAWLGAPEPWEPT [chain 1 L16T], 0. For the variant chain 1 TGQGAWLGAPEPWEPL [chain 1 F2G], the screen value was determined as 5.47e-05. Take chain 1 TAQGAWLGAPEPWEPL [chain 1 F2A]: the screen value was determined as 0.000265.

On to chain 1 TDQGAWLGAPEPWEPL [chain 1 F2D], for which the screen value was 6.3e-05. Turning to chain 1 TPQGAWLGAPEPWEPL [chain 1 F2P], the screen value is 6.51e-05.

As for chain 1 TIQGAWLGAPEPWEPL [chain 1 F2I], the screen value is 0.

As for chain 1 TVQGAWLGAPEPWEPL [chain 1 F2V], the screen value worked out at 0. For chain 1 TEQGAWLGAPEPWEPL [chain 1 F2E], the screen value came out at 3.22e-05. Still for that read-out and setting: for chain 1 TLQGAWLGAPEPWEPL [chain 1 F2L] the value was 0. The same measure, in the same setting: the result for chain 1 TWQGAWLGAPEPWEPL [chain 1 F2W] reads 0.

Consider chain 1 TFQGAWLGAPSPWEPL [chain 1 E11S], for which the screen value is 0. In the case of chain 1 TFQGAWLGAPYPWEPL [chain 1 E11Y], the screen value came to 0. Still for that read-out and setting: for chain 1 TFQGAWLGAPNPWEPL [chain 1 E11N] the value was 0; for chain 1 TFQGAWLGAPHPWEPL [chain 1 E11H], 0; for chain 1 TFQGAWLGAPDPWEPL [chain 1 E11D], 0. Consider chain 1 TFQGAWLGAPLPWEPL [chain 1 E11L], for which the screen value was found to be 0. Still for that read-out and setting: for chain 1 TFQGAWDGAPEPWEPL [chain 1 L7D] the value was 0; for chain 1 TFQGAWMGAPEPWEPL [chain 1 L7M], 0; for chain 1 TFQGAWIGAPEPWEPL [chain 1 L7I], 0.

On to chain 1 TFQGAWLVAPEPWEPL [chain 1 G8V], for which the screen value came out at 0.

chain 1 TFQGAWLKAPEPWEPL [chain 1 G8K]: the screen value worked out at 0. Same read-out and setting: the result for chain 1 TFQGAWLEAPEPWEPL [chain 1 G8E] reads 0; that for chain 1 TFQGAWLMAPEPWEPL [chain 1 G8M], 0; that for chain 1 TFQGAWLRAPEPWEPL [chain 1 G8R], 0. Turning to chain 1 TFQGAILGAPEPWEPL [chain 1 W6I], the screen value is 0. For chain 1 TFQGANLGAPEPWEPL [chain 1 W6N], the screen value was determined as 0.
